These results are taken from US20190175684A1.

Square brackets hold non-standard residues; d marks the D form. Ends that are not written are not given here.

Test [1] deals with annexin A1. The test can be described thus: QCM (quartz crystal microbalance).
Test [2] has as its target annexin A1. The test can be described thus: QCM, peptide fixed on the sensor chip, Anxa1 injected at various doses.

B1: dTIT7 peptide (peptide)
peptide: [dT][dI][dT][dW][dP][dT][dM]
As a reminder, the Kd is the equilibrium constant for the complex coming apart. The low end stands for a tighter complex, the high end for a looser complex. B1 came in with a Kd with annexin A1 [1] of 45.7 nM.

B2: dLRF7 peptide (peptide)
peptide: [dL][dR][dF][dP][dT][dV][dL]
Molecule B2 showed a Kd in the test with annexin A1 [2] of 31.2 nM.

B3: dLLS7 peptide (peptide)
peptide: [dL][dL][dS][dW][dP][dS][dA]
The molecule B3 had a dissociation constant (Kd) in the test with annexin A1 [2] of 54.2 nM.

B4: dSPT7 peptide (peptide)
peptide: [dS][dP][dT][dS][dL][dL][dF]
B4 had a Kd with annexin A1 [2] of 90.3 nM.

B5: dMPT7 peptide (peptide)
peptide: [dM][dP][dT][dL][dT][dF][dR]
B5: in the test with annexin A1 [2], the Kd came out at 298 nM.
